Measured values: patent US20240301067A1 (WUXI BIOLOGICS IRELAND, published 2024)
Changes are numbered by the printed parent chain. In names and notes the source's numbering stands.

B1: W3056-AP17R1-2H2-FC(IgG4.SP) (Fc fusion)
chain: QVQLVESGGGLVQPGGSLRLSCAASDSIDSLVNMGWYRQAPGKQRELVALIANYITHYADFVKGRFTISRDAAKNTVNLQMSSLKPEDTAVYYCYARNIIVDYWGQGTQVTVSS
notes: VHH fused to Fc of human IgG4 S228P; also called W3056 lead parental antibody (VHH-Fc(hIgG4) fusion); not shown: Fc of human IgG4 (hIgG4.S228P)
B2: W3056-AP17R1-2H2-Z1-R1-14A1-FC(IgG4.SP) (Fc fusion)
chain: B1 chain with L11V, N53T, A72N, A73S, V77L, N78Y, S82N, K85R, P86A, Q109L
notes: also called W3056 lead antibody (VHH-Fc(hIgG4) fusion); not shown: Fc of human IgG4 (hIgG4.S228P)

How the values were obtained:
[1] = biological target: T1, Cynomolgus monkey PD-1 on transiently transfected 293F cells (cynomolgus monkey); assay: FACS on cyno PD-1 transfected 293F cells, experiment 1
T1 construct: whole, on cells; also called cell surface cynomolgus PD-1; cyno PD-1
Protocol: Cynomolgus monkey PD-1 (GenBank Accession No. NP_001271065.1) transient transfected 293F cells (2×10⁵ cells/well) were incubated with various concentrations of anti-PD-1 antibodies (3-fold serially diluted from 133.4 nM to 0.008 nM) at 4° C. for 1 hour. After washing with 1×PBS/1% BSA, the secondary antibody PE-labeled goat anti-human IgG was applied and incubated with cells at 4° C. for 1 hour. Anti-human PD-1 antibodies BMK1 and BMK3 were used as positive control. Human IgG4 isotype antibody was used as negative control. The cells were then washed and re-suspended in 1×PBS/1% BSA. MFI of the cells was measured by a flow cytometer and analyzed by FlowJo (version 7.6.1).

Mouse PD-1 on 293F cells = biological target: T2, Mouse PD-1 on 293F cells (mouse, UniProt Q02242 25-288); assay: FACS on 293F.mPro1.B4 cells
T2 construct: whole, on cells; also called 293F.mPro1.B4; WBP305.293F.mPro1.B4
T2 sequence (looked up): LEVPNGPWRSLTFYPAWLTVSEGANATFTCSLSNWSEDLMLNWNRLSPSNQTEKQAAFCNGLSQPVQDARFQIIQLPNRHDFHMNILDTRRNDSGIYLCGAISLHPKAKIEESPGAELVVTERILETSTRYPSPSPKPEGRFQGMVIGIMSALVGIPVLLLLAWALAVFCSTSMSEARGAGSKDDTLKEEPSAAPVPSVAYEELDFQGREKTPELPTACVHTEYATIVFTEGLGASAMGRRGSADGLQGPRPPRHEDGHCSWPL
Protocol: The cells 293F.mPro1.B4 (2×10⁵ cells/well) were incubated with various concentrations of anti-PD-1 antibodies (3-fold serially diluted from 133.3 nM to 0.008 nM) at 4° C. for 1 hour. After washing with 1×PBS/1% BSA, the secondary antibody PE-labeled goat anti-human IgG was applied and incubated with cells at 4° C. for 1 hour. Human IgG4 isotype antibody was used as negative control. The cells were then washed and re-suspended in 1×PBS/1% BSA. MFI of the cells was measured by a flow cytometer and analyzed by FlowJo (version 7.6.1).

[2] = biological target: T3, Cynomolgus PD-1 extracellular domain, hFc tag (cynomolgus, UniProt B0LAJ3 25-170); assay: ELISA competition on coated cynoPro1.ECD.hFc; competitor cynoProL1.ECD.hFc.biotin 2.5 µg/mL; experiment 2
T3 construct: Bought; also called cynoPro1.ECD.hFc; cyno PD-1 ECD protein
Protocol: Plates were pre-coated with 1 μg/mL, 100 μL per well of cyno PD-1 ECD protein (cynoPro1.ECD.hFc) at 4° C. overnight. After 1-hour blocking using 200 μL of 1×PBS/2% BSA, constant concentration of biotinylated cyno PD-L1 (cynoProL1.ECD.hFc.biotin) (2.5 μg/mL) and various concentrations of testing antibody, positive and negative control (3-fold serially diluted from 133.4 nM to 0.007 nM) were pre-mixed and added to the plates. The plates were incubated at ambient temperature for 1 hour. The binding of ligand to the immobilized protein was detected by streptavidin-HRP. The color was developed by dispensing 100 μL of TMB substrate, and then stopped by 100 μL of 2M HCl. The absorbance was read at 450 nm and 540 nm using a microplate spectrophotometer.

[3] = biological target: Human PD-1 (soluble analyte in SPR, Table 11) (human, UniProt Q15116 25-167); assay: SPR Biacore 8K; antibody captured on anti-human Fc chip, PD-1 injected; 1:1 fit
Protocol: (§1) Antibody binding affinity to human, mouse and cynomolgus PD-1 was detected using Biacore 8K. W3056-AP17R1-2H2-Z1-R1-14A1-FC (IgG4.SP) was captured on an anti-human Fc IgG antibody immobilized CM5 sensor chip (GE). Human, mouse and cynomolgus PD-1 at different concentrations were injected over the sensor chip at a flow rate of 30 uL/min for an association phase of 120 s, followed by 150 s dissociation. The chip was then regenerated by 10 mM Glycine pH 1.5 after each binding cycle.
(§2) The sensorgrams of blank surface and buffer channel were subtracted from the test sensorgrams. The experimental data was fitted by 1:1 model using Langmiur analysis. Molecular weight of 40, 45 and 40 kDa was used to calculate the molar concentration of analyte human, mouse and cynomolgus PD-1 respectively.

[4] = biological target: T4, Mouse PD-1 (soluble analyte in SPR, Table 11) (mouse, UniProt Q02242 25-167, limits assumed); assay: as above
T4 sequence (looked up): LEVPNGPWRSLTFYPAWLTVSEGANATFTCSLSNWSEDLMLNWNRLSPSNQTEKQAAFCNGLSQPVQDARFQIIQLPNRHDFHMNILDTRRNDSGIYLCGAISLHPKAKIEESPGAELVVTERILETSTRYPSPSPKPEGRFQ
Protocol: as §1, §2

[5] = biological target: T5, Cynomolgus PD-1 (soluble analyte in SPR, Table 11) (cynomolgus, UniProt B0LAJ3 25-170); assay: as above
T5 construct: also called cyno PD-1
Protocol: as §1, §2

[6] = biological target: T6, Human PD-1 extracellular domain, mFc tag (human, UniProt Q15116 25-170); assay: ELISA competition on coated hPro1.ECD.mFc; competitor hPro1L2.ECD.His; experiment 2
T6 construct: extracellular domain; also called hPro1.ECD.mFc; hPD-1.ECD.mFc; not shown: mouse Fc tag at C-terminus
Protocol: Plates were pre-coated with 1 μg/mL, 100 μL per well of human PD-1 ECD (hPro1.ECD.mFc) at 4° C. overnight. After 1-hour blocking using 200 μL of 1×PBS/2% BSA, constant concentration of his tagged human PD-L2 ECD (hPro1L2.ECD.His) and various concentrations of testing antibodies (3-fold serially diluted from 66.7 nM to 0.003 nM) were pre-mixed and added to the plates. After 2-hour incubation at ambient temperature, the binding of the ligand to the immobilized protein was detected by HRP-labeled goat anti-His antibody. The color was developed by dispensing 100 μL of TMB substrate, and then stopped by 100 μL of 2N HCl. The absorbance was read at 450 nm and 540 nm using a microplate spectrophotometer.

Human PD-1 (soluble analyte in SPR, Table 11), sequence (Q15116 25-167 limits assumed): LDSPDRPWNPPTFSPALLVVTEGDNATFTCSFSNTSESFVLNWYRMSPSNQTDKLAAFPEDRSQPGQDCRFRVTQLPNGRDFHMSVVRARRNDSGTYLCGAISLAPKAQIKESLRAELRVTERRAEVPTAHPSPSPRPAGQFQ
T5 sequence (B0LAJ3 entry or part of it limits assumed): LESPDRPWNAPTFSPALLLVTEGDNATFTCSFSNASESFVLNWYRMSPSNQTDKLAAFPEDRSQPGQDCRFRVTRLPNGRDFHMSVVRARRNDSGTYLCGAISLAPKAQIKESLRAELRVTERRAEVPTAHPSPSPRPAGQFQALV
T6 sequence (Q15116 25-170): as the sequence (B0LAJ3 entry or part of it limits assumed) above, with E2D, A10P, L19V, A35T, R75Q, A144T counted along it
T3 sequence (B0LAJ3 entry or part of it limits assumed): as the sequence (B0LAJ3 entry or part of it limits assumed) above

Binder | EC50 [1] [nM] | EC50 (Mouse PD-1 on 293F cells) [nM] | IC50 [2] [nM] | Kd [3] [nM] | koff [3] [s⁻¹] | kon [3] [M⁻¹ s⁻¹] | Kd [4] [nM] | koff [4] [s⁻¹] | kon [4] [M⁻¹ s⁻¹] | Kd [5] [nM] | koff [5] [s⁻¹] | kon [5] [M⁻¹ s⁻¹] | IC50 [6] [nM]
B1 | 0.98 | 4.77 | – | – | – | – | – | – | – | – | – | – | –
B2 | – | 4.26 | 0.853 | 3.45 | 0.000857 | 248000 | 28.7 | 0.00422 | 147000 | 8.53 | 0.00177 | 208000 | 0.886
